Experimental data: US20180021429A1, “ANTICANCER AGENTS OR ANTIMETASTATIC AGENTS USING FSTL1 AND COMBINATION DRUG THEREOF” (PHARMA FOODS INTERNATIONAL CO., LTD., priority 2015, published 2018)
Where a chain is given by its changes, count along the chain named. Entries after “also recorded” stand apart in the source; their conditions may differ.

B1: #5-3: chicken-mouse chimeric anti-FSTL1 antibody clone; variable regions SEQ ID NO: 767 (light), 769 (heavy) (antibody, V domains shown)
VH: AVTLDESGGGLQTPGGALSLVCKGSGFSFSSFNMFWVRQAPGKGLEWVAGIGKDGVPKYGAAVDGRATISKDNGQSTMRLQLNNLRAEDTGTYFCAKAAGGCSYDWCGIYAGDIDTWGHGTEVIVSS
VL: ASTQPSSVSANPGETVKITCSGGSGYYYGWYQQKSPGSVPVTVIYNNNNRPSDIPSRFSGSKSGSTGTLTITGVRAEDEAVYYCGGYDNSGTGIFGAGTTLTVL
modifications: mouse constant regions
B2: #8-4: chicken-mouse chimeric anti-FSTL1 antibody clone; variable regions SEQ ID NO: 795 (light), 797 (heavy) (antibody, V domains shown)
VH: AVTLDESGGGLQTPGGGLSLVCKGSGFTLSSFNMFWVRQAPGKGLEWVAGVGKDGGTAYGAAVDGRATISRDSGQSTVRLQLNNLRAEDTGTYFCAKAAGGCSYSWCGAYVGDLDAWGHGTEVIVSS
VL: B1 VL with T3S, V39A, N48D, R50K, R75Q, A76V, Y83F
modifications: mouse constant regions
B3: #5-8: chicken-mouse chimeric anti-FSTL1 antibody clone; variable regions SEQ ID NO: 771 (light), 773 (heavy) (antibody, V domains shown)
VH: B1 VH with A17G, S28T, A61T, A111T
VL: ASTQPSSVSANPGEAVKITCSGGSGSYYGWYQQKSPGSAPVTVIYNNNQRPSDIPSRFSGSKSGSTATLTITGVQAEDEAVYFCGGYDSSTGHGGIFGAGTTLTVL
modifications: mouse constant regions
B4: #6-55: chicken-mouse chimeric anti-FSTL1 antibody clone; variable regions SEQ ID NO: 783 (light), 785 (heavy) (antibody, V domains shown)
VH: AVTLDESGGGLQTPGGALSLVCKGSGFTFTSVTMQWVRQAPGKGLEWVASVCSGSSTYYAPAVKGRATISRDNGQSTVRLQLSNLRPEDTGTYYCAKIAGRARWSCTSAAYNIDAWGHGTEVIVSS
VL: ASTQPSSVSAIPGETVKITCSGGGNNYGWYQQRSPGSAPVTVIYYNDNRPSNIPSRFSGSTSGSTSTLTITGVQADDEAIYYCGSWDSNTDSGIFGAGTTLTVL
modifications: mouse constant regions

Legend:
[1] = tested on: human pancreatic cancer cell line Panc1; experiment: Inhibitory activity against activation of tumor cell by FSTL1, RANKL-/CCR2-positive cells (Examples 5, 7, 9-11); type: cell-based
Description: It is known that tumor cells activated by stimulation with FSTL1 highly express molecule groups promoting bone metastasis and increase metastatic invasive capacity (Cancer Research 73: 6185, 2013). Thus, […] cells/well of a human pancreatic cancer cell line Panc1 were suspended in 1 mL/well of D-MEM medium (GIBCO/Thermo Fisher Scientific Inc. Cat. No. C11885500BT) containing 10% fetal bovine serum, supplemented with 50 ng/mL (final concentration) of FSTL1 (R&D Systems, Inc.) and 10 μg/mL of the anti-FSTL1 antibody (#5-2, #5-8, #5-10, #5-43, #6-55, or #7-34) or its isotype mouse IgG (anti-DNP antibody) as a control antibody “Control”, and cultured under stimulation (6-well plate). 3 days thereafter, the number of cells was counted while the cells were stained with a PE-labeled anti-RANKL antibody (eBioscience Cat. No. 12-6619) and a PE-labeled anti-CCR2 antibody (R&D Systems, Inc. Cat. No. FAB151P) in order to examine the expression of markers indicating bone metastatic properties, and the contents of RANKL-positive cells and CCR2-positive cells were analyzed by flow cytometry using FACScan (Becton, Dickinson and Company) to calculate the numbers of cells per culture. […] Therefore, in Examples below, judgment was made with the number of cells as an index.
In the same way as in Example 5, a human pancreatic cancer cell line Panc1 was supplemented with 50 ng/mL (final concentration) of FSTL1 (R&D Systems, Inc.) and 10 μg/mL of the anti-FSTL1 antibody (the same clones as in Example 6) or a control antibody and cultured under stimulation.
3 days thereafter, the number of cells was counted while the cells were stained with a PE-labeled anti-RANKL antibody and a PE-labeled anti-CCR2 antibody, and the contents of RANKL-positive cells and CCR2-positive cells were analyzed by flow cytometry using FACScan (Becton, Dickinson and Company) to calculate the numbers of cells per culture (FIG. 5B).
(§1) In the same way as in Example 5, a human pancreatic cancer cell line Panc1 was supplemented with 20 ng/mL (final concentration) of FSTL1 and 10 μg/mL of the anti-FSTL1 antibody (#5-2, #5-8, or #6-55) or a control antibody and cultured under stimulation. 3 days thereafter, the number of cells was counted while the cells were stained with a PE-labeled anti-RANKL antibody and a PE-labeled anti-CCR2 antibody, and the contents of RANKL-positive cells and CCR2-positive cells were analyzed by flow cytometry using FACScan (Becton, Dickinson and Company) to calculate the numbers of cells per culture (FIG. 6B).
as §1, with “50” for “20”, “#5-3, #6-55, #7-34, #8-1, #8-4, #8-7,” for “#5-8,”, “#8-8)” for “#6-55)”, “culture.” for “culture (FIG. 6B).”
as §1, with “50” for “20”, “(#6-55)” for “(#5-2, #5-8, or #6-55)”, “culture.” for “culture (FIG. 6B).”
It is known that tumor cells activated by stimulation with FSTL1 highly express molecule groups promoting bone metastasis and increase metastatic invasive capacity (Cancer Research 73: 6185, 2013). […]

[2] = tested on: human pancreatic cancer cell line Panc1; experiment: Inhibition of activation of tumor cells by FSTL1, Panc1 (Examples 5, 7, 9, 10, 11); type: cell-based
Description: It is known that tumor cells activated by stimulation with FSTL1 highly express molecule groups promoting bone metastasis and increase metastatic invasive capacity (Cancer Research 73: 6185, 2013). Thus, 2×10^7 cells/well of a human pancreatic cancer cell line Panc1 were suspended in 1 mL/well of D-MEM medium (GIBCO/Thermo Fisher Scientific Inc. Cat. No. C11885500BT) containing 10% fetal bovine serum, supplemented with 50 ng/mL (final concentration) of FSTL1 (R&D Systems, Inc.) and 10 μg/mL of the anti-FSTL1 antibody (#5-2, #5-8, #5-10, #5-43, #6-55, or #7-34) or its isotype mouse IgG (anti-DNP antibody) as a control antibody “Control”, and cultured under stimulation (6-well plate). 3 days thereafter, the number of cells was counted while the cells were stained with a PE-labeled anti-RANKL antibody (eBioscience Cat. No. 12-6619) and a PE-labeled anti-CCR2 antibody (R&D Systems, Inc. Cat. No. FAB151P) in order to examine the expression of markers indicating bone metastatic properties, and the contents of RANKL-positive cells and CCR2-positive cells were analyzed by flow cytometry using FACScan (Becton, Dickinson and Company) to calculate the numbers of cells per culture. […] Therefore, in Examples below, judgment was made with the number of cells as an index.
as §1, with “supplemented with 50 ng/mL (final” for “supplemented with 20 ng/mL (final”, “of FSTL1 (R&D Systems, Inc.) and 10” for “of FSTL1 and 10”, “anti-FSTL1 antibody (the same clones as in Example 6) or a” for “anti-FSTL1 antibody (#5-2, #5-8, or #6-55) or a”, “culture (FIG. 99B).” for “culture (FIG. 6B).”
as §1, with “100B).” for “6B).”
as §1, with “50” for “20”, “#5-3, #6-55, #7-34, #8-1, #8-4, #8-7,” for “#5-8,”, “#8-8)” for “#6-55)”, “culture.” for “culture (FIG. 6B).”
as §1, with “50” for “20”, “(#6-55)” for “(#5-2, #5-8, or #6-55)”, “culture.” for “culture (FIG. 6B).”

[3] = Example 7, FIG. 5B/35B, FSTL1 50 ng/mL, antibody 10 μg/mL, 3 days
[4] = Example 7: 50 ng/mL FSTL1, 10 μg/mL antibody, 3 days, FIG. 99B
[5] = Example 10, FIG. 6C/36C, FSTL1 50 ng/mL, antibody 10 μg/mL, 3 days
[6] = Example 9, FIG. 6B/36B, FSTL1 20 ng/mL, antibody 10 μg/mL, 3 days
[7] = Example 9: 20 ng/mL FSTL1, 10 μg/mL antibody, 3 days, FIG. 100B

Row | Molecule | inhibitory activity against the expansion of RANKL-positive cells and CCR2-positive cells [1, 3] | inhibitory activity against the expansion of RANKL-positive cells and CCR2-positive cells [2, 4] | inhibitory activity against the expansion of RANKL-positive cells and CCR2-positive cells [1, 5] | inhibitory activity against the expansion of RANKL-positive cells and CCR2-positive cells ([2]; Example 10: 50 ng/mL FSTL1, 10 μg/mL antibody, 3 days) | inhibitory activity against the expansion of RANKL-positive cells and CCR2-positive cells [1, 6] | inhibitory activity against the expansion of RANKL-positive cells and CCR2-positive cells [2, 7] | dose dependence of the antibody ([1]; Example 11, FIG. 6D/36D, 5, 10, 20 μg/mL) | inhibitory activity against the expansion of RANKL-positive cells and CCR2-positive cells ([1]; Example 11, FIG. 6D/36D, FSTL1 50 ng/mL, at all tested doses 5, 10 and 20 μg/mL) | inhibition of cell induction of RANKL-positive cells and CCR2-positive cells ([1]; Example 11, FIG. 6D/36D, dose dependence test) | inhibitory activity against the expansion of RANKL-positive cells and CCR2-positive cells ([2]; Example 11: 50 ng/mL FSTL1, at all tested doses (5, 10 and 20 μg/mL), no dose dependence, FIG. 100D)
1 | B1 | higher inhibitory activity | higher inhibitory activity |  |  |  |  |  |  |  | 
2 | B2 |  |  | high inhibitory activity; also recorded: higher inhibitory activity | high inhibitory activity |  |  |  |  |  | 
3 | B3 | higher inhibitory activity | higher inhibitory activity |  |  | exhibited inhibitory activity against the expansion of RANKL-positive cells and CCR2-positive cells; also recorded: higher inhibitory activity | exhibited inhibitory activity |  |  |  | 
4 | B4 |  |  | high inhibitory activity; also recorded: higher inhibitory activity |  | exhibited inhibitory activity against the expansion of RANKL-positive cells and CCR2-positive cells; also recorded: higher inhibitory activity | exhibited inhibitory activity | the dose dependence of antibody was not confirmed; also recorded: the dose dependence of the antibody was not confirmed | ~100% | exhibited inhibitory activity; also recorded: strongly inhibited the cell induction of both RANKL-positive cells and CCR2-positive cells at the same time | ~100%
